Measured values: US20040137000A1 (UNITED BIOMEDICAL, published 2004)
Read-outs that look alike come from different tables or passages of the source.

Key:
[1] = biological target: T1, recombinant soluble CD4 (rsCD4) (UniProt P01730 26-396, limits assumed); test: ELISA on rsCD4
T1 construct: Bought reagent coated on ELISA plates at 0.25 µg/ml; also called solid-phase rsCD4

[2] = biological target: T2, CD4 on the surface of host T cells (HIV receptor complex involving CD4) (UniProt P01730 26-458, limits assumed); test: cell-based or functional assay
[3] = biological target: T2, CD4 on the surface of host T cells (HIV …); test: cell-based or functional assay; remark: listed apart in the source

Binder	fold reduction in binding compared to the chimeric antibody [1] [fold]	Antibody Conc (µg/ml) at 50% Inhibition; MT-2 microplaque neutralization, HIV-1 TH036 (PBL), clade E [2] [µg/mL]	Antibody Conc (µg/ml) at 50% Inhibition; MT-2 microplaque neutralization, HIV-1 UG029 (PBL), clade A [2] [µg/mL]	Antibody Conc (µg/ml) at 50% Inhibition; MT-2 microplaque neutralization, HIV-1 VL135 (PBL), clade B [2] [µg/mL]	Antibody Conc (µg/ml) at 50% Inhibition; MT-2 microplaque neutralization, HIV-1 MN (H9 cells), clade B [3] [µg/mL]	Antibody Conc (µg/ml) at 50% Inhibition; MT-2 microplaque neutralization, HIV-1 TH036 (PBL), clade E [3] [µg/mL]	Antibody Conc (µg/ml) at 50% Inhibition; MT-2 microplaque neutralization, HIV-1 UG029 (PBL), clade A [3] [µg/mL]	Antibody Conc (µg/ml) at 50% Inhibition; MT-2 microplaque neutralization, HIV-1 UG046 (PBL), clade D [3] [µg/mL]	Antibody Conc (µg/ml) at 50% Inhibition; MT-2 microplaque neutralization, HIV-1 UG266 (PBL), clade D [3] [µg/mL]	Antibody Conc (µg/ml) at 50% Inhibition; MT-2 microplaque neutralization, HIV-1 VL135 (PBL), clade B [3] [µg/mL]	Antibody Conc (µg/ml) at 50% Inhibition; MT-2 microplaque neutralization, HIV-1 ZIM748 (PBL), clade C [3] [µg/mL]
deimmunized B4 antibody DIVHv.3/VKv.2 produced by NS0 cells (antibody, human IgG1, V domains shown, Human IgG1 and human kappa constant regions; NS0 cells; also called DIVHv.3/V v.2; DIVH3/VK2) VH: QVQLVQSGAEVKKPGASVKVSCKASGYTFTDYVIHWVKQATGQGLEWIGEIYPGSGSAYSNAKFKDRVTITADKSTNTAYMELRSLRSDDTAVYFCARRGNGTGFAYWGQGTLVTVSS VL: DIVLTQSPASLAVSPGQRATITCKAGQSVDYDGDSYMNWYQQKPGQPPKLLIYVASNLESGIPSRFSGSGSGTDFTLTINPVEENDTATYYCQQSYKDPLTFGQGTKVEIK	< 3	0.7	0.92	0.35	–	–	–	–	–	–	–
murine monoclonal antibody B4 (antibody, V domains shown) VH: QVQLQQSGPELVKPGASVRMSCKASGYTFTDYVIHWVKQRTGQGLEWIGEIYPGSGSAYSNAKFKDKATLTADKSSNTAYMQLSSLTSEDSAVYFCARRGNGTGFAYWGQGTLVTVSA VL: DIVLTQSPASLAVSLGQRATISCKAGQSVDYDGDSYMNWYQQKPGQPPKLLIYVASNLESGIPARFSGSGSGTDFTLNIHPVEEEDAATYYCQQSYKDPLTFGAGTKLELK	–	0.24	0.28	0.17	14	0.25	0.44	0.4	0.4	0.16	0.21
deimmunized B4 antibody DIVHv.2/VKv.2 produced by NS0 cells (antibody, human IgG1, V domains shown, Human IgG1 and human kappa constant regions; NS0 cells; also called DIVHv.2/V v.2; DIVH2/VK2) VH: QVQLVQSGAEVKKPGASVKVSCKASGYTFTDYVIHWVRQATGQGLEWIGEIYPGSGSAYSNAKFKDRVTITADKSTNTAYMELRSLRSDDTAVYFCARRGNGTGFAYWGQGTLVTVSS VL: DIVLTQSPASLAVSPGQRATITCKAGQSVDYDGDSYMNWYQQKPGQPPKLLIYVASNLESGIPSRFSGSGSGTDFTLTINPVEENDTATYYCQQSYKDPLTFGQGTKVEIK	< 3	0.63	0.73	0.23	–	–	–	–	–	–	–
deimmunized B4 antibody DIVHv.1/VKv.1 produced by NS0 cells (antibody, human IgG1, V domains shown) VH: QVQLVQSGPELKKPGASVKVSCKASGYTFTDYVIHWVKQATGQGLEWIGEIYPGSGSAYSNAKFKDRVTMTADKSSNTAYMELSSLTSDDTAVYFCARRGNGTGFAYWGQGTLVTVSS VL: DIVLTQSPASLAVSLGQRATITCKAGQSVDYDGDSYMNWYQQKPGQPPKLLIYVASNLESGIPARFSGSGSGTDFTLNIHPVEENDAATYYCQQSYKDPLTFGQGTKLEIK	–	–	–	–	> 100	0.31	0.47	2.1	0.82	0.21	0.45
deimmunized B4 antibody DIVHv.3/VKv.3 produced by NS0 cells (antibody, human IgG1, V domains shown, Human IgG1 and human kappa constant regions; NS0 cells; also called DIVHv.3/V v.3; DIVH3/VK3) VH: QVQLVQSGAEVKKPGASVKVSCKASGYTFTDYVIHWVKQATGQGLEWIGEIYPGSGSAYSNAKFKDRVTITADKSTNTAYMELRSLRSDDTAVYFCARRGNGTGFAYWGQGTLVTVSS VL: DIVLTQSPASLAVSPGQRATITCKAGQSVDYDGDSYMNWYQQKPGQPPKLLIYVASNLESGIPSRFSGSGSGTDFTLTINPVEENDTATYYCQQSYKDPLAFGPGTKVEIK	5	0.44	1.1	0.62	–	–	–	–	–	–	–
deimmunized B4 antibody DIVHv.1/VKv.2 produced by NS0 cells (antibody, human IgG1, V domains shown) VH: QVQLVQSGPELKKPGASVKVSCKASGYTFTDYVIHWVKQATGQGLEWIGEIYPGSGSAYSNAKFKDRVTMTADKSSNTAYMELSSLTSDDTAVYFCARRGNGTGFAYWGQGTLVTVSS VL: DIVLTQSPASLAVSPGQRATITCKAGQSVDYDGDSYMNWYQQKPGQPPKLLIYVASNLESGIPSRFSGSGSGTDFTLTINPVEENDTATYYCQQSYKDPLTFGQGTKVEIK	–	0.51	0.73	0.24	–	–	–	–	–	–	–
deimmunized B4 antibody DIVHv.3/VKv.1 produced by NS0 cells (antibody, human IgG1, V domains shown, Human IgG1 and human kappa constant regions; NS0 cells; also called DIVHv.3/V v.1; DIVH3/VK1) VH: QVQLVQSGAEVKKPGASVKVSCKASGYTFTDYVIHWVKQATGQGLEWIGEIYPGSGSAYSNAKFKDRVTITADKSTNTAYMELRSLRSDDTAVYFCARRGNGTGFAYWGQGTLVTVSS VL: DIVLTQSPASLAVSLGQRATITCKAGQSVDYDGDSYMNWYQQKPGQPPKLLIYVASNLESGIPARFSGSGSGTDFTLNIHPVEENDAATYYCQQSYKDPLTFGQGTKLEIK	< 3	–	–	–	> 100	0.58	0.63	0.99	2.2	0.26	0.42
deimmunized B4 antibody DIVHv.2/VKv.1 produced by NS0 cells (antibody, human IgG1, V domains shown, Human IgG1 and human kappa constant regions; NS0 cells; also called DIVHv.2/V v.1; DIVH2/VK1) VH: QVQLVQSGAEVKKPGASVKVSCKASGYTFTDYVIHWVRQATGQGLEWIGEIYPGSGSAYSNAKFKDRVTITADKSTNTAYMELRSLRSDDTAVYFCARRGNGTGFAYWGQGTLVTVSS VL: DIVLTQSPASLAVSLGQRATITCKAGQSVDYDGDSYMNWYQQKPGQPPKLLIYVASNLESGIPARFSGSGSGTDFTLNIHPVEENDAATYYCQQSYKDPLTFGQGTKLEIK	< 3	–	–	–	> 100	0.5	0.79	0.98	1.2	0.53	0.63
deimmunized B4 antibody DIVHv.2/VKv.3 produced by NS0 cells (antibody, human IgG1, V domains shown, Human IgG1 and human kappa constant regions; NS0 cells; also called DIVHv.2/V v.3; DIVH2/VK3) VH: QVQLVQSGAEVKKPGASVKVSCKASGYTFTDYVIHWVRQATGQGLEWIGEIYPGSGSAYSNAKFKDRVTITADKSTNTAYMELRSLRSDDTAVYFCARRGNGTGFAYWGQGTLVTVSS VL: DIVLTQSPASLAVSPGQRATITCKAGQSVDYDGDSYMNWYQQKPGQPPKLLIYVASNLESGIPSRFSGSGSGTDFTLTINPVEENDTATYYCQQSYKDPLAFGPGTKVEIK	5	0.62	1.2	0.67	–	–	–	–	–	–	–
deimmunized B4 antibody DIVHv.4/VKv.1 produced by NS0 cells (antibody, human IgG1, V domains shown, Human IgG1 and human kappa constant regions; NS0 cells; also called DIVHv.4/V v.1) VH: QVQLVQSGAEVKKPGASVKVSCKASGYTFTDYVIHWVRQATGQGLEWIGEIYPGSGSAYSNSKFKDRVTITADKSTNTAYMELRSLRSDDTAVYFCARRGNGTGFAYWGQGTLVTVSS VL: DIVLTQSPASLAVSLGQRATITCKAGQSVDYDGDSYMNWYQQKPGQPPKLLIYVASNLESGIPARFSGSGSGTDFTLNIHPVEENDAATYYCQQSYKDPLTFGQGTKLEIK	< 3	–	–	–	> 100	0.35	0.35	1.1	7	0.26	0.28
deimmunized B4 antibody DIVHv.1/VKv.3 produced by NS0 cells (antibody, human IgG1, V domains shown) VH: QVQLVQSGPELKKPGASVKVSCKASGYTFTDYVIHWVKQATGQGLEWIGEIYPGSGSAYSNAKFKDRVTMTADKSSNTAYMELSSLTSDDTAVYFCARRGNGTGFAYWGQGTLVTVSS VL: DIVLTQSPASLAVSPGQRATITCKAGQSVDYDGDSYMNWYQQKPGQPPKLLIYVASNLESGIPSRFSGSGSGTDFTLTINPVEENDTATYYCQQSYKDPLAFGPGTKVEIK	–	0.77	1	0.39	–	–	–	–	–	–	–
